Publication PMC7418079

Biological target: Enterovirus D68 virion, B1 clade isolate US/MO/14–18947 (Enterovirus D68)

B1: mAb EV68–159 (antibody, V domains shown)
VH: EVQLVESGGGLVKPGGLRLSCAASGFTFSTYIMTWVRQAPGRGLEWVSSISTSSVYTFYADSLKGRFTISRDNAKNSVYLQMNSLRADDTAVYYCAREEGFRAYNLYWGQGTLVTVSS
VL: QSVLTQPPSASGTPGQRVTISCSGSSSNIEYNYVYWYQKFPGTAPKLLIYKNNQRPSGVPDRFSGSKSGTSASLAISGLRSEDEGDYYCAAWDDILSGVVFGGGTKLTVL
For B1, the IC50 of neutralisation of a B1 clade EV-D68 isolate, CCID50 assay on RD cells was 0.32 ng/mL.
